Five molecules from article PMC12636746, “Structural Basis for TRF2-RAP1 Recruitment by EBNA1 at the EBV origin of replication” (Research Square, 2025) can be followed below.

The labels stand for the following.
B3: pre-assembled full length TRF2/Rap1 complex (complex)
chain 1: MAAGAGTAGPASGPGVVRDPAASQPRKRPGREGGEGARRSDTMAGGGGSSDGSGRAAGRRASRSSGRARRGRHEPGLGGPAERGAGEARLEEAVNRWVLKFYFHEALRAFRGSRYGDFRQIRDIMQALLVRPLGKEHTVSRLLRVMQCLSRIEEGENLDCSFDMEAELTPLESAINVLEMIKTEFTLTEAVVESSRKLVKEAAVIICIKNKEFEKASKILKKHMSKDPTTQKLRNDLLNIIREKNLAHPVIQNFSYETFQQKMLRFLESHLDDAEPYLLTMAKKALKSESAASSTGKEDKQPAPGPVEKPPREPARQLRNPPTTIGMMTLKAAFKTLSGAQDSEAAFAKLDQKDLVLPTQALPASPALKNKRPRKDENESSAPADGEGGSELQPKNKRMTISRLVLEEDSQSTEPSAGLNSSQEAASAPPSKPTVLNQPLPGEKNPKVPKGKWNSSNGVEEKETWVEEDELFQVQAAPDEDSTTNITKKQKWTVEESEWVKAGVQKYGEGNWAAISKNYPFVNRTAVMIKDRWRTMKRLGMN
chain 2: MAEAMDLGKDPNGPTHSSTLFVRDDGSSMSFYVRPSPAKRRLSTLILHGGGTVCRVQEPGAVLLAQPGEALAEASGDFISTQYILDCVERNERLELEAYRLGPASAADTGSEAKPGALAEGAAEPEPQRHAGRIAFTDADDVAILTYVKENARSPSSVTGNALWKAMEKSSLTQHSWQSLKDRYLKHLRGQEHKYLLGDAPVSPSSQKLKRKAEEDPEAADSGEPQNKRTPDLPEEEYVKEEIQENEEAVKKMLVEATREFEEVVVDESPPDFEIHITMCDDDPPTPEEDSETQPDEEEEEEEEKVSQPEVGAAIKIIRQLMEKFNLDLSTVTQAFLKNSGELEATSAFLASGQRADGYPIWSRQDDIDLQKDDEDTREALVKKFGAQNVARRIEFRKK
notes: source: E. coli, each protein purified; complex pre-assembled and purified by glycerol gradient; not shown: His6-SUMO, N-terminal, cleaved
B4: TRF2 homodimerization domain (TRFH), residues 85–287 of TRF2 (domain or fragment, UniProt Q15554 85-287, looked up)
chain: AGEARLEEAVNRWVLKFYFHEALRAFRGSRYGDFRQIRDIMQALLVRPLGKEHTVSRLLRVMQCLSRIEEGENLDCSFDMEAELTPLESAINVLEMIKTEFTLTEAVVESSRKLVKEAAVIICIKNKEFEKASKILKKHMSKDPTTQKLRNDLLNIIREKNLAHPVIQNFSYETFQQKMLRFLESHLDDAEPYLLTMAKKALK
notes: also called TRFH domain; TRF2 dimerization domain; source: E. coli (all constructs), purified
B5: EBNA1 DNA binding domain (DBD) aa 401–607 (domain or fragment)
chain: GRRPFFHPVGEADYFEYHQEGGPDGEPDVPPGAIEQGPADDPGEGPSTGPRGQGDGGRRKKGGWFGKHRGQGGSNPKFENIAEGLRALLARSHVERTTDEGTWVAGVFVYGGSKTSLYNLRRGTALAIPQCRLTPLSRLPFGMAPGPGPQPGPLRESIVCYFMVFLQTHIFAEVLKDAIKDLVMTKPAPTCNIRVTVCSFDDGVDLP
notes: also called EBNA1 DBD; EBNA1(401–607); source: E. coli, autoinduction medium, purified (Ni-NTA, Superdex 75); not shown: His6-SUMO, N-terminal, cleaved

Common to all, as to settings: both partners purified
Experiment [1] has as its target B3. Nature of the experiment: native gel or EMSA; pre-assembled TRF2-Rap1 complex (glycerol gradient) serially diluted onto pre-assembled ½DS-EBNA1 complex (10X stock 200 nM EBNA1, 50 nM ½DS DNA); binding buffer with 300 mM KCl; 1.4% agarose gel. A general note: Mobility shift assays separate free from complexed probe on a gel.
Experiment [2] has as its target B4. In words: native gel or EMSA; TRFH domain added to the ½DS-EBNA1 complex; binding buffer lowered to 100 mM KCl, highest TRFH 10 μM (1000-fold excess); under standard conditions only a weak supershift.
In experiment [3] the target is T1, EBNA1Δ90–325 3x (E495A D499A E500A) (Epstein-Barr virus, UniProt P03211 1-641, Δ90–325 | E495A | D499A | E500A).
T1 construct: also called 3x mutant EBNA1; source: E. coli, autoinduction medium, purified (Ni-NTA, Superdex 75); not shown: His6-SUMO, N-terminal, cleaved
T1 sequence: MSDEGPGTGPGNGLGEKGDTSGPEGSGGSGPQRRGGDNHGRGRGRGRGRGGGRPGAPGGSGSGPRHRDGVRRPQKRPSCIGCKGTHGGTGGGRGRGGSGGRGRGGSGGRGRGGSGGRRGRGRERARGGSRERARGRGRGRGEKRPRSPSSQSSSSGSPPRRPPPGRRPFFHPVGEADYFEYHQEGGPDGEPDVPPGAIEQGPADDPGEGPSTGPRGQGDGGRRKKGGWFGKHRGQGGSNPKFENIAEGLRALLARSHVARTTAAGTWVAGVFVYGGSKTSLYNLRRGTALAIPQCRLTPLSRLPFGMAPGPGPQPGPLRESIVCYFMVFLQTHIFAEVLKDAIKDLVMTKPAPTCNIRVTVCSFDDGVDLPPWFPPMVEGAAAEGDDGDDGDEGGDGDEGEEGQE
In words: native gel or EMSA; pre-assembled TRF2-Rap1 complex (glycerol gradient) serially diluted onto pre-assembled ½DS-EBNA1 complex (10X stock 200 nM EBNA1, 50 nM ½DS DNA); binding buffer with 300 mM KCl; 1.4% agarose gel.

In experiment [4] the target is B5. In words: native gel or EMSA; TRFH domain added to the ½DS-EBNA1 complex; binding buffer lowered to 100 mM KCl, highest TRFH 10 μM (1000-fold excess); under standard conditions only a weak supershift.
The target in the next experiment is T2, full-length TRF2 (UniProt Q15554 1-542).
T2 construct: also called TERF2; source: E. coli, autoinduction medium, purified (Ni-NTA, Superdex 75); not shown: His6-SUMO, N-terminal, cleaved
T2 sequence (looked up): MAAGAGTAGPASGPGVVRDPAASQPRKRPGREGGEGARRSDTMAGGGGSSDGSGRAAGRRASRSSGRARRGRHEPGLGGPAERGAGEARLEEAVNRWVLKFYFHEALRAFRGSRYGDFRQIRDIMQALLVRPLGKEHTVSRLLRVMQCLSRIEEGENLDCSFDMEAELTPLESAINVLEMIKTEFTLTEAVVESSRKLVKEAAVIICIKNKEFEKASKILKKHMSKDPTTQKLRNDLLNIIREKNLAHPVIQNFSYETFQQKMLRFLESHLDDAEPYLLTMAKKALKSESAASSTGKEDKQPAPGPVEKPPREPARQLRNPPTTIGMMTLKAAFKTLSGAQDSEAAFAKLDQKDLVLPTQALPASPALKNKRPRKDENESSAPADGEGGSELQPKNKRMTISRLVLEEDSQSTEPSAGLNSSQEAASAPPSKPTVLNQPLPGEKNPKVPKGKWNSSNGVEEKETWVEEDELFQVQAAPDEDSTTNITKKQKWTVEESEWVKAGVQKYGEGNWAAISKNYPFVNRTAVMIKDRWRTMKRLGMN
Nature of the experiment: native gel or EMSA; EBNA1 DBD pre-formed on the 60 bp ½DS DNA probe (5 nM, IRD700), TRF2 and then Rap1 added; 10 mM HEPES pH 7.5, 300 mM KCl, 5 mM MgCl2, 1 mM ZnCl2, 5 mM BME, 0.05% NP-40, 5% glycerol; 1.4% agarose gel.

Another experiment addresses T3, full-length Rap1 (human, UniProt Q9NYB0 1-399).
T3 construct: also called TERF2IP; source: E. coli, autoinduction medium, purified (Ni-NTA, Superdex 75); not shown: His6-SUMO, N-terminal, cleaved
T3 sequence (looked up): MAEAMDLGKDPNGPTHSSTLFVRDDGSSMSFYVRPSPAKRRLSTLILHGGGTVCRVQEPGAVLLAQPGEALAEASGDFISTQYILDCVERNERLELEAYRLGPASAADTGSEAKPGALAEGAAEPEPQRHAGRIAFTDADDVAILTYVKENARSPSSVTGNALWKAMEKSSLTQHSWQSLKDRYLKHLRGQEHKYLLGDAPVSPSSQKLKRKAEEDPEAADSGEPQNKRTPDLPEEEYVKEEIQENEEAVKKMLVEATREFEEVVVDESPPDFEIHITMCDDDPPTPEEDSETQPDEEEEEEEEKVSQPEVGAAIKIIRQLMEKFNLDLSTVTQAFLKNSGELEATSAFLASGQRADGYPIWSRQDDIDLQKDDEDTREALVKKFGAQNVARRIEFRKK
The description is as above.

B1: EBNA1ΔGA (Δ90–325), wild type (natural protein)
chain: MSDEGPGTGPGNGLGEKGDTSGPEGSGGSGPQRRGGDNHGRGRGRGRGRGGGRPGAPGGSGSGPRHRDGVRRPQKRPSCIGCKGTHGGTGGGRGRGGSGGRGRGGSGGRGRGGSGGRRGRGRERARGGSRERARGRGRGRGEKRPRSPSSQSSSSGSPPRRPPPGRRPFFHPVGEADYFEYHQEGGPDGEPDVPPGAIEQGPADDPGEGPSTGPRGQGDGGRRKKGGWFGKHRGQGGSNPKFENIAEGLRALLARSHVERTTDEGTWVAGVFVYGGSKTSLYNLRRGTALAIPQCRLTPLSRLPFGMAPGPGPQPGPLRESIVCYFMVFLQTHIFAEVLKDAIKDLVMTKPAPTCNIRVTVCSFDDGVDLPPWFPPMVEGAAAEGDDGDDGDEGGDGDEGEEGQE
notes: also called WT EBNA1; "full-length" EBNA1; source: E. coli, autoinduction medium, purified (Ni-NTA, Superdex 75); not shown: His6-SUMO, N-terminal, cleaved
As to B1, in experiment [1], the binding result is given as “binds”.

B2: EBNA1 459–607 (domain or fragment)
chain: RKKGGWFGKHRGQGGSNPKFENIAEGLRALLARSHVERTTDEGTWVAGVFVYGGSKTSLYNLRRGTALAIPQCRLTPLSRLPFGMAPGPGPQPGPLRESIVCYFMVFLQTHIFAEVLKDAIKDLVMTKPAPTCNIRVTVCSFDDGVDLP
notes: also called shorter EBNA1 459–607; core structured DBD; source: E. coli (all constructs), purified
As for B2, the binding result in experiment [2] is reported as “binds”. On to B3, for which, in experiment [3], the “fold weaker than with WT EBNA1” value is around 2 fold.

In the case of B4, in experiment [4], the binding result is “binds”. B5: the binding result with full-length TRF2 and with full-length Rap1 was “binds” throughout.
